Experimental findings from the supplement of paper PMC10598134 are described below.

The nature of the data set: collision cross section of modified peptide (TIMS, N2, iRT-aligned); higher = larger / more extended gas-phase ion. The essentials:
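Values are averages of 1–3 technical replicates of the most abundant feature for each charge state. Collision cross section was obtained from the Mason-Schamp equation after 1/K0 calibration with three reference ions and run-wise alignment to the median iRT peptide deviation. Synthetic peptide pools (iRT standard spiked 1:40) were separated on a 120-min nanoflow C18 gradient at 60 °C, analysed on a timsTOF Pro/HT (dda-PASEF, nitrogen, ~2.4 mbar) and identified with MaxQuant.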

Where [1] appears, read: charge state: 2, modification: Crotonyl.
Setting [2] is: charge state: 2, modification: Biotin.
[3] abbreviates: charge state: 2, modification: Glutarylation.
Setting [4] is: charge state: 3, modification: Glutarylation.
The mark [5] stands for this setting: charge state: 2, modification: Hydroxyproline.
Setting [6] is: charge state: 3, modification: Methyl (K).
The mark [7] stands for this setting: charge state: 2, modification: HexNAc (ST).
The mark [8] stands for this setting: charge state: 2, modification: Propionyl.
Setting [9] is: charge state: 2, modification: Dimethyl (K).
Where [10] appears, read: charge state: 3, modification: Dimethyl (K).
Setting [11] is: charge state: 2, modification: Citrullination (R).
[12] abbreviates: charge state: 3, modification: Citrullination (R).
Where [13] appears, read: charge state: 2, modification: Trimethyl (K).
The mark [14] stands for this setting: charge state: 3, modification: Trimethyl (K).
Where [15] appears, read: charge state: 2, modification: Methyl (K).
[16] abbreviates: charge state: 2, modification: Phospho (Y).
Where [17] appears, read: charge state: 2, modification: hydroxyisobutyryl.
Where [18] appears, read: charge state: 3, modification: Hydroxyproline.
[19] abbreviates: charge state: 2, modification: Butyryl.
Setting [20] is: charge state: 3, modification: Butyryl.
Where [21] appears, read: charge state: 2, modification: Nitro (Y).
Setting [22] is: charge state: 2, modification: Succinyl.
[23] abbreviates: charge state: 3, modification: Crotonyl.
Setting [24] is: charge state: 2, modification: Acetyl (K).
Where [25] appears, read: charge state: 3, modification: Acetyl (K).

± gives the standard deviation.

LAEEENKAK [_LAEEENK(Crotonyl)AK_]: under setting [1], the collision cross section stood at 351.41 ± 1.1 Å². Under setting [2], “STGLELETPSLVPVKK [_STGLELETPSLVPVK(Biotin)K_]” returned a collision cross section of 465.71 Å². On to “VGIDTPDIDIHGPEGKLK [_VGIDTPDIDIHGPEGK(Gluratylation)LK_]”, for which the collision cross section reads like this: under setting [3], 497.76 ± 0.79 Å²; under setting [4], 542.69 ± 1.1 Å². Consider “PGPQPSAETTR [_PGP(Hydroxyproline)QPSAETTR_]”, for which the collision cross section under setting [5] came to 345.87 ± 0.25 Å². In the case of “GSLGAQKLANTCFNEIEK [_GSLGAQK(Methyl (K))LANTCFNEIEK_]”, the collision cross section under setting [6] is recorded as 509.24 Å². TQSFSLQER [_T(HexNAc (ST))QSFSLQER_]: under setting [7], the collision cross section is given as 373.04 ± 0.83 Å². Consider LQLEIDQKK [_LQLEIDQK(Propionyl)K_], for which, under setting [8], the collision cross section amounted to 368.05 ± 0.33 Å². “TEVLSPNSKVESK [_TEVLSPNSK(Dimethyl (K))VESK_]”: the collision cross section by setting is: under setting [9], 400.19 ± 1.6 Å²; under setting [10], 477.45 ± 2.4 Å².

With “VLATQPGPGRGR [_VLATQPGPGR(Citrullination (R))GR_]”, the collision cross section by setting is: under setting [11], 364.01 ± 0.27 Å²; under setting [12], 447.25 Å².

For “IQQELQTAKK [_IQQELQTAK(Trimethyl (K))K_]”, the collision cross section runs as follows: under setting [13], 374.97 ± 0.61 Å²; under setting [14], 436.54 ± 2.4 Å². Sequence “DTGEKLTVAENEAETK [_DTGEK(Propionyl)LTVAENEAETK_]” came in with a collision cross section under setting [8] of 443.51 Å². On to IQTKAGEATVK [_IQTK(Crotonyl)AGEATVK_], for which the collision cross section under setting [1] amounted to 371.41 ± 0.56 Å².

For “DASTLQSQKAEGTGDAK [_DASTLQSQK(Gluratylation)AEGTGDAK_]”, the collision cross section turned out to be 440.54 ± 1.5 Å² under setting [3] and 515.28 ± 0.85 Å² under setting [4].

“GRGAANDSTQFTVAGR [_GR(Methyl (R))GAANDSTQFTVAGR_]” showed a collision cross section (charge state: 3, modification: Methyl (R)) of 468.2 ± 2.7 Å².

GSLEKGSPEDK [_GSLEK(Crotonyl)GSPEDK_] had a collision cross section under setting [1] of 371.77 ± 0.26 Å². With VNALKNLQVK [_VNALK(Methyl (K))NLQVK_], the collision cross section was determined as 371.4 ± 0.45 Å² under setting [15] and 420.52 ± 3.9 Å² under setting [6]. As to LQNSYQPTNK [_LQNSY(Phospho (Y))QPTNK_], the collision cross section under setting [16] was determined as 366.81 ± 0.064 Å². On to ASCLYGQLPK [_ASCLY(Phospho (Y))GQLPK_], for which, under setting [16], the collision cross section was determined as 373.97 ± 0.65 Å². Regarding LQDVSGQLSSSKK [_LQDVSGQLSSSK(Biotin)K_], the collision cross section turned out to be 425.22 ± 2.6 Å² under setting [2] and 506.69 Å² (charge state: 3, modification: Biotin). Consider LQLEIDQKK [_LQLEIDQK(Gluratylation)K_], for which the collision cross section under setting [3] is 373.2 ± 0.7 Å². Consider “ILDLKTGTVK [_ILDLK(hydroxyisobutyryl)TGTVK_]”, for which, under setting [17], the collision cross section is listed as 366.99 ± 1.3 Å². For “FPGVGVLPGVPTGAGVK [_FPGVGVLP(Hydroxyproline)GVPTGAGVK_]”, the collision cross section under setting [5] turned out to be 432.68 ± 8.7 Å² and the collision cross section under setting [18] was determined as 504.05 ± 5.9 Å². As to “YIEIYVQKVNPSR [_YIEIYVQK(Trimethyl (K))VNPSR_]”, the collision cross section came out at 446.57 Å² under setting [13] and 499.16 ± 1.6 Å² under setting [14]. In the case of “PASGAGAGAGAGKR [_PASGAGAGAGAGK(Butyryl)R_]”, the collision cross section came to 358.98 ± 1.3 Å² under setting [19] and 461.52 ± 2.9 Å² under setting [20].

With DVNAAIAAIKTK [_DVNAAIAAIK(Malonyl)TK_], the collision cross section (charge state: 2, modification: Malonyl) was determined as 406.2 ± 0.59 Å². In turn, “FGYVDFESAEDLEK [_FGY(Nitro (Y))VDFESAEDLEK_]” had a collision cross section under setting [21] of 424.66 Å².

“SYISSQTNDTHK [_S(HexNAc (ST))YISSQTNDTHK_]” had a collision cross section under setting [7] of 405.45 ± 0.67 Å². Regarding “GNPGVGTQGPR [_GNP(Hydroxyproline)GVGTQGPR_]”, the collision cross section under setting [5] is 327.91 ± 0.79 Å². As to “TVTNAVVTVPAYFNDSQR [_TVTNAVVTVPAY(Nitro (Y))FNDSQR_]”, the collision cross section is 470.26 ± 1.5 Å² under setting [21] and 559.7 ± 0.32 Å² (charge state: 3, modification: Nitro (Y)). Consider “GTITVSAQELKDNR [_GTITVSAQELK(Trimethyl (K))DNR_]”, for which the collision cross section is, setting by setting: under setting [13], 442.48 ± 1 Å²; under setting [14], 479.04 ± 1.8 Å². “YSTSGSSGLTTGK [_Y(Phospho (Y))STSGSSGLTTGK_]” displayed a collision cross section under setting [16] of 375.26 ± 0.063 Å². With IQQELQTAKK [_IQQELQTAK(Propionyl)K_], the collision cross section under setting [8] was 379.28 ± 0.65 Å². Sequence LSITGTYDLK [_LSITGTY(Nitro (Y))DLK_] showed a collision cross section under setting [21] of 368.48 ± 0.22 Å².

Regarding “GGPGAPGAPGPK [_GGPGAP(Hydroxyproline)GAPGPK_]”, under setting [5], the collision cross section was determined as 326.77 ± 0.24 Å². ILDLKTGTVK [_ILDLK(Succinyl)TGTVK_]: the collision cross section under setting [22] is recorded as 362.99 ± 0.74 Å². As for “ANEKTESSSAQQVAVSR [_ANEK(Propionyl)TESSSAQQVAVSR_]”, the collision cross section by setting is: under setting [8], 439.84 ± 1.6 Å²; (charge state: 3, modification: Propionyl) 533.7 Å². Turning to KYEEIDNAPEER [_K(Crotonyl)YEEIDNAPEER_], the collision cross section is 413.83 ± 0.55 Å² under setting [1] and 493.07 ± 1.6 Å² under setting [23]. As to “GFALVGVGSEASSKK [_GFALVGVGSEASSK(Trimethyl (K))K_]”, the collision cross section reads like this: under setting [13], 444.52 ± 0.57 Å²; under setting [14], 489.21 ± 1.8 Å². The sequence “LGVATVAKGVCGACK [_LGVATVAK(Butyryl)GVCGACK_]” showed a collision cross section under setting [19] of 418.39 ± 0.77 Å² and a collision cross section under setting [20] of 491.64 Å². Take “VDIDAPDVSIEGPDAKLK [_VDIDAPDVSIEGPDAK(Succinyl)LK_]”: under setting [22], the collision cross section stood at 469.67 ± 0.79 Å². Same read-out and setting: in the case of LEQVEKELLR [_LEQVEK(Succinyl)ELLR_] it was 384.25 ± 0.76 Å². Regarding “GETASKLQSEISR [_GETASK(Acetyl (K))LQSEISR_]”, the collision cross section was 386.09 ± 2 Å² under setting [24] and 464.45 ± 0.086 Å² under setting [25]. Take “VGIDTPDIDIHGPEGKLK [_VGIDTPDIDIHGPEGK(Malonyl)LK_]”: the collision cross section (charge state: 3, modification: Malonyl) came to 540.98 Å². With “GEKGNPGVGTQGPR [_GEKGNP(Hydroxyproline)GVGTQGPR_]”, the collision cross section runs as follows: under setting [5], 371.11 ± 0.55 Å²; under setting [18], 431.33 ± 1.3 Å². Regarding “VYIASSSGSTAIKK [_VYIASSSGSTAIK(GlyGly (K))K_]”, the collision cross section runs as follows: (charge state: 2, modification: GlyGly (K)) 437.45 ± 1.4 Å²; (charge state: 3, modification: GlyGly (K)) 498.73 ± 3.9 Å². Under setting [5], KVQFAPEK [_KVQFAP(Hydroxyproline)EK_] displayed a collision cross section of 331.99 ± 1.4 Å². In the case of “SITHSTVGSKGEK [_SITHSTVGSK(Methyl (K))GEK_]”, the collision cross section was 402.47 ± 1.2 Å² under setting [15] and 466.28 ± 2.9 Å² under setting [6]. Turning to “DYVSQFEGSALGK [_DY(Nitro (Y))VSQFEGSALGK_]”, the collision cross section under setting [21] worked out at 387.16 ± 0.17 Å². Consider “DAIHFYNKSLAEHR [_DAIHFYNK(Gluratylation)SLAEHR_]”, for which the collision cross section under setting [3] amounted to 458.31 Å² and the collision cross section under setting [4] was found to be 515.3 ± 0.96 Å².

For the sequence “FGTINIVHPKLGSYTK [_FGTINIVHPK(Dimethyl (K))LGSYTK_]”, the collision cross section under setting [10] is 520.37 ± 1.2 Å².

Regarding “TQAYQDQKPGTSGLR [_TQAYQDQK(Crotonyl)PGTSGLR_]”, the collision cross section reads like this: under setting [1], 430.35 ± 3.2 Å²; under setting [23], 480.34 ± 2.8 Å². In the case of “IISSIEQKEENK [_IISSIEQK(Trimethyl (K))EENK_]”, the collision cross section runs as follows: under setting [13], 411.54 ± 1.1 Å²; under setting [14], 448.49 ± 1.5 Å². Take “GSLEKGSPEDK [_GSLEK(Dimethyl (K))GSPEDK_]”: the collision cross section worked out at 362.2 ± 0.83 Å² under setting [9] and 433.68 ± 2.1 Å² under setting [10]. With “FSAYIKNSNPALNDNLEK [_FSAYIK(Trimethyl (K))NSNPALNDNLEK_]”, under setting [14], the collision cross section was 516.88 ± 0.87 Å². Consider “LLEEEDSKLK [_LLEEEDSK(hydroxyisobutyryl)LK_]”, for which, under setting [17], the collision cross section is on record as 385.85 ± 5.2 Å². On to “VILENIASHEPR [_VILENIAS(HexNAc (ST))HEPR_]”, for which the collision cross section came to 443 ± 0.62 Å² under setting [7] and 492.7 ± 0.18 Å² (charge state: 3, modification: HexNAc (ST)). On to “IVFSGNLFQHQEDSKK [_IVFSGNLFQHQEDSK(Acetyl (K))K_]”, for which the collision cross section runs as follows: under setting [24], 495.37 ± 4.2 Å²; under setting [25], 536.07 ± 1.1 Å². Regarding KFGVLSDNFK [_K(Acetyl (K))FGVLSDNFK_], under setting [24], the collision cross section is recorded as 370.76 ± 0.46 Å². “APPIDRSILPTAPR [_APPIDR(Citrullination (R))SILPTAPR_]”: the collision cross section runs as follows: under setting [11], 410.86 ± 0.21 Å²; under setting [12], 480.52 ± 0.41 Å². LLEEEDSKLK [_LLEEEDSK(Formyl)LK_] displayed a collision cross section (charge state: 2, modification: Formyl) of 374.12 ± 0.55 Å².
